Data from patent US20130101605A1.

Experiments:
[1] = biological target: RGM of chick tectal membranes (chick) (UniProt Q8JG54); experiment: cell-based or functional assay
[2] = biological target: DCC (Deleted in Colorectal Cancer) expressed on COS-7 cells; experiment: RGM-AP binding to transfected COS-7 cells
[3] = biological target: mouse Neogenin expressed on COS-7 cells (mouse) (UniProt P97798); experiment: AP fusion binding to transfected COS-7 cells, saturation and Scatchard analysis
UniProt P97798, sequence (P97798 37-1492): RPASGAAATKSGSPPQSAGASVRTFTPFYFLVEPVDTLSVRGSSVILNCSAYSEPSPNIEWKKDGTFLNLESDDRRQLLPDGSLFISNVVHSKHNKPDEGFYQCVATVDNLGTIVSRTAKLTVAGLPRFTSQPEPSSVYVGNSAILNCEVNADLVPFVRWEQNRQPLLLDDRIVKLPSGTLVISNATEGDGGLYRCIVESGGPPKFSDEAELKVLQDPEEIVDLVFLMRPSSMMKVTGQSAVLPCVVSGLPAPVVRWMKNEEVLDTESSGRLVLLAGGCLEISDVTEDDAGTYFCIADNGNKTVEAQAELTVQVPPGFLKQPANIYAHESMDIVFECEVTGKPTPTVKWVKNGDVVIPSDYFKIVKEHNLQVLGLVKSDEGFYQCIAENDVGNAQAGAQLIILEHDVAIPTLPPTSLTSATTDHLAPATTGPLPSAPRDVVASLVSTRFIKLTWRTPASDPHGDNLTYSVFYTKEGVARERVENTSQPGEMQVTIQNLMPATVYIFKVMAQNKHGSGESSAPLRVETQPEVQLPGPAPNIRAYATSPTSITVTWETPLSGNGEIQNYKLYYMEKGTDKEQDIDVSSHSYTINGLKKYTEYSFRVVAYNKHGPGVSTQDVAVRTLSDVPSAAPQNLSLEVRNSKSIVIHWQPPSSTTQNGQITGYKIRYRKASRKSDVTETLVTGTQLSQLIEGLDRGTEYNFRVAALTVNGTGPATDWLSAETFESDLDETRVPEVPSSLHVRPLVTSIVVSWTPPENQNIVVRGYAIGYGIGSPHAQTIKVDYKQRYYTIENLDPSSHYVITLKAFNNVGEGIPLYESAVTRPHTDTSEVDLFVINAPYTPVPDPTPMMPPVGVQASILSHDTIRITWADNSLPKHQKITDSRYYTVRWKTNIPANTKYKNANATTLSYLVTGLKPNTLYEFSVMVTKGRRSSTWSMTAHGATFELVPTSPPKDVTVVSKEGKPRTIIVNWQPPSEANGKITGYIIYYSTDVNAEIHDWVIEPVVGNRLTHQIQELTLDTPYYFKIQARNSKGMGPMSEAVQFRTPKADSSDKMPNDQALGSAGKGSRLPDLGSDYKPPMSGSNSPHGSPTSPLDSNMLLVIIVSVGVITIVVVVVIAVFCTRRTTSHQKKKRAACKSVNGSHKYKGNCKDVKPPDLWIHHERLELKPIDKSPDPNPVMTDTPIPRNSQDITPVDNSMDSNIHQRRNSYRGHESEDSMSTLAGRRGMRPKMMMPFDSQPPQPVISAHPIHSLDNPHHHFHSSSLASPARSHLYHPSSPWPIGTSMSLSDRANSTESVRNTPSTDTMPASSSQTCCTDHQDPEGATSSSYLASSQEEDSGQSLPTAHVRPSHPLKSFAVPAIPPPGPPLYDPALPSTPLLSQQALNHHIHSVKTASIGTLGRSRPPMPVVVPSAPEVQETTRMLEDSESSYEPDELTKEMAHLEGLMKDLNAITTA

UniProt Q8JG54, sequence (Q8JG54 150-404 limits assumed): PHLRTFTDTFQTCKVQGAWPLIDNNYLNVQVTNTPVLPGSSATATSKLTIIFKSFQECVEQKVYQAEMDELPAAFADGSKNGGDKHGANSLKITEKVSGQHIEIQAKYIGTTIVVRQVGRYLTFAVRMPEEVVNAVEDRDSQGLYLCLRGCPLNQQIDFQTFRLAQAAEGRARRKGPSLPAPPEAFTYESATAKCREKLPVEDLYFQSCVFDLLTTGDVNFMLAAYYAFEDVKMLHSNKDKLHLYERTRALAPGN

Soluble ectodomain of chick Neogenin-1 (1-1027) with a carboxyl MycHis tag (from UniProt Q90610 1-1027) (receptor)
retinotectal stripe assay: blockade of retinal axon stripe preference [1]: 400 nM

chick RGM-AP fusion protein (chick RGM aa 28 to 403 fused to human placental alkaline phosphatase, carboxy-terminal Myc His tag) (from UniProt Q8JG54 28-403; P05187 23-511) (ligand)
fold lower affinity than for Neogenin [2]: 50 fold
Kd [3]: 0.23 nM
